The values that follow come from PMC9508855.

The target in data set [1] is T1, FnCas12a ΔBH (Francisella novicida, UniProt A0Q7Q2 1-1300, del953-969). Briefly: EMSA.
In data set [2] the target is T2, FnCas12a Δh1 (Francisella novicida, UniProt A0Q7Q2 1-1300, del972-1000). Briefly: EMSA.
Data set [3] concerns the target T3, FnCas12a ΔBH/Δh1 (Francisella novicida, UniProt A0Q7Q2 1-1300, del953-1000). The experiment in a line: EMSA.
A further data set concerns the target FnCas12a WT (Francisella novicida, UniProt A0Q7Q2 1-1300). The experiment in a line: mass photometry.
Data set [4] has as its target T1, FnCas12a ΔBH. The experiment in a line: EMSA. This is another data set of the same source.
For data set [5], the target named is T2, FnCas12a Δh1. The experiment in a line: EMSA. This is another data set of the same source.
The target in the next data set is FnCas12a ΔΔBH (Francisella novicida, UniProt A0Q7Q2 1-1300, del953-971). The experiment in a line: EMSA.
Data set [6] addresses T3, FnCas12a ΔBH/Δh1. The experiment in a line: EMSA. This is another data set of the same source.

B1: crRNA-Cy5 (43 nt) (structured_RNA)
RNA: AAUUUCUACUGUUGUAGAUGUGAUAAGUGGAAUGCCAUGUGGG
For the molecule B1, the figures for the binding signal with FnCas12a ΔBH [1], with FnCas12a Δh1 [2] and in the data set with FnCas12a ΔBH/Δh1 [3] were ~50 % of WT, 10.7 % of WT and 22.9 % of WT, respectively.

B2: crRNA (43 nt) (structured_RNA)
RNA: AAUUUCUACUGUUGUAGAUGUGAUAAGUGGAAUGCCAUGUGGG
With B2, the binding result with FnCas12a WT is recorded as “binds”.

B3: crRNA + 58 bp target DNA MM 0 (labeled) (mixed)
RNA: AAUUUCUACUGUUGUAGAUGUGAUAAGUGGAAUGCCAUGUGGG
DNA 1: ACTCAATTTTGACAGCCCACATGGCATTCCACTTATCACTAAAGGCATCCTTCCACGT
DNA 2: ACGTGGAAGGATGCCTTTAGTGATAAGTGGAATGCCATGTGGGCTGTCAAAATTGAGT
In the case of B3, the binding result in the data set with FnCas12a ΔBH [4] was “binds”; with FnCas12a Δh1 [5], “no binding”; in the data set with FnCas12a ΔΔBH, “no binding”; with FnCas12a ΔBH/Δh1 [6], “no binding”.
